Experimental data as given in doi:10.1101/2020.01.21.914671.

Assays:
Test in all cases: ITC
[1] = target: human Bad BH3 motif peptide (26-mer) (human)
[2] = target: human Bmf BH3 motif peptide (26-mer) (human)
[3] = target: human Puma BH3 motif peptide (26-mer) (human)
[4] = target: human Hrk BH3 motif peptide (26-mer) (human)

Substance: TANV16L K52A lacking the C-terminal 23 residues (domain or fragment)
- fold reduction in binding against wild type TANV16L [1]: 27 fold
- fold reduction in binding against wild type TANV16L [2]: 20 fold

Substance: TANV16L R90A lacking the C-terminal 23 residues (domain or fragment)
- fold reduction in binding against wild type TANV16L [3]: 2 fold
- fold reduction in binding against wild type TANV16L [4]: 2 fold
